The labels stand for the following.
B1: … (peptide)
peptide: SLMPAHWSI
B2: … (peptide)
peptide: FELLSTPPL
B3: … (peptide)
peptide: VMAGLGSPYV
B4: … (peptide)
peptide: SQIMSLWGL
B5: … (peptide)
peptide: YVMAYVMAG
B6: … (peptide)
peptide: VLHECNSLYI
B7: … (peptide)
peptide: YVMAYVMAGV
B8: … (peptide)
peptide: SLGNHLCPL
B9: … (peptide)
peptide: YLGNHMNIA
B10: … (peptide)
peptide: LSLMPAHWSI
B11: … (peptide)
peptide: YMFLKAESKI
B12: … (peptide)
peptide: WMTETLFDIV
B13: … (peptide)
peptide: MLTDSLFLPI
B14: … (peptide)
peptide: MNWRPILTI
B15: LKKLRSPL (peptide)
peptide: LKKLRSPL
B16: … (peptide)
peptide: CLTSTVQLIM
B17: … (peptide)
peptide: MLLRLNLRKM
B18: BTK_C481S peptide … (peptide)
peptide: YMANGSLLN
B19: BTK_C481S peptide … (peptide)
peptide: MANGSLLNYL
B20: … (peptide)
peptide: LTSTVQLIM
B21: EGFR, T790M peptide … (peptide)
peptide: LTSTVQLIM
B22: EGFR_T790M peptide … (peptide)
peptide: CLTSTVQLIM
B23: EGFR_T790M peptide … (peptide)
peptide: VQLIMQLMPF
B24: EGFR_T790M peptide … (peptide)
peptide: IMQLMPFGCL
B25: EGFR_T790M peptide … (peptide)
peptide: MQLMPFGCLL
B26: EGFR_T790M peptide … (peptide)
peptide: QLIMQLMPF

Broadly, the IC50 is the concentration that inhibits the measured activity by half. A high value points to weaker potency in that assay.

One assay concerns the target HLA class I molecule A02.01. In words: pMHC-I dissociation half-life, 125I-b2m. The conditions noted are these: remark: other sources report otherwise.
As for B1, the Stability (T1/2 (h)) was determined as 5 h.

As to B2, the Stability (T1/2 (h)) was 0 h.

Turning to B3, the Stability (T1/2 (h)) was 2.9 h.

Molecule B4 returned a Stability (T1/2 (h)) of 1 h.

With B5, the Stability (T1/2 (h)) was found to be 2.5 h.

In the case of B6, the Stability (T1/2 (h)) came to 5.1 h.

B7 had a Stability (T1/2 (h)) of 20.9 h.

The molecule B8 came in with a Stability (T1/2 (h)) of 3.5 h.

As for B9, the Stability (T1/2 (h)) came to 0.6 h.

B10 displayed a Stability (T1/2 (h)) of 0.4 h.

For the molecule B11, the Stability (T1/2 (h)) is 0.6 h.

Another assay deals with HLA class I molecule A03.01. As to the kind of experiment: pMHC-I dissociation half-life, 125I-b2m. Conditions: remark: other sources report otherwise.
B3: the Stability (T1/2 (h)) came to 0 h.

B6 gave a Stability (T1/2 (h)) of 0 h.

The molecule B11 came in with a Stability (T1/2 (h)) of 0 h.

The next assay has as its target HLA class I molecule A24.02. In words: pMHC-I dissociation half-life, 125I-b2m. Conditions: remark: other sources report otherwise.
Consider B1, for which the Stability (T1/2 (h)) was 0.4 h.

Take B4: the Stability (T1/2 (h)) came out at 0 h.

Consider B10, for which the Stability (T1/2 (h)) is 0 h.

The target in the next assay is HLA class I molecule B07.02. As to the kind of experiment: pMHC-I dissociation half-life, 125I-b2m. Conditions: remark: other sources report otherwise.
For the molecule B1, the Stability (T1/2 (h)) turned out to be 0 h.

In turn, B5 displayed a Stability (T1/2 (h)) of 0 h.

In the case of B7, the Stability (T1/2 (h)) came out at 0 h.

B8: the Stability (T1/2 (h)) came to 0 h.

The next assay deals with HLA class I molecule B08.01. In words: pMHC-I dissociation half-life, 125I-b2m. The conditions noted are these: remark: other sources report otherwise.
For the molecule B1, the Stability (T1/2 (h)) stood at 0 h.

B2 had a Stability (T1/2 (h)) of 0 h.

B4: the Stability (T1/2 (h)) came out at 0 h.

B5 had a Stability (T1/2 (h)) of 1.2 h.

In turn, B7 gave a Stability (T1/2 (h)) of 0 h.

As to B8, the Stability (T1/2 (h)) is 0.5 h.

Consider B9, for which the Stability (T1/2 (h)) came to 0 h.

In turn, B10 displayed a Stability (T1/2 (h)) of 0 h.

In the case of B11, the Stability (T1/2 (h)) came out at 0.4 h.

A further assay addresses HLA-A01.01 (human). As to the kind of experiment: pMHC-I dissociation half-life, 125I-b2m. Conditions: remark: other sources report otherwise.
B12 gave a Stability (T1/2 (h)) of 0 h.

For B13, the Stability (T1/2 (h)) is 0 h.

The target of another assay is HLA-A02.01 (human). In words: pMHC-I dissociation half-life, 125I-b2m. Conditions: remark: other sources report otherwise.
With B12, the Stability (T1/2 (h)) is 0.4 h.

Molecule B14 came in with a Stability (T1/2 (h)) of 3.8 h.

B13 gave a Stability (T1/2 (h)) of 1 h.

The target of a further assay is HLA-A24.02 (human). In words: pMHC-I dissociation half-life, 125I-b2m. The conditions noted are these: remark: other sources report otherwise.
As to B14, the Stability (T1/2 (h)) is 0.2 h.

Another assay deals with HLA-B08.01 (human). In words: competition with radiolabeled reference peptide, purified MHC I.
Details: not given
The molecule B15 yielded a 50% inhibitory concentration (IC50) of 0.6 nM.

The target of the next assay is HLA-A01.01 (human). In words: pMHC-I complex dissociation at 37 C, 125I-b2m, half-life. The conditions noted are these: remark: other sources report otherwise.
The molecule B16 displayed a Stability (T1/2 (h)) of 0 h.

The next assay concerns the target HLA-A02.01 (human). The assay is described as above. The conditions noted are these: remark: other sources report otherwise.
Turning to B16, the Stability (T1/2 (h)) was 0 h.

Another assay concerns the target HLA-A01.01 (human). In words: competition with radiolabeled reference peptide, purified MHC I. Conditions: remark: other sources report otherwise.
Turning to B12, the IC50 was 14400 nM.

Take B13: the IC50 was 7670 nM.

For the next assay, the target named is HLA-A02.01 (human). Described as above. Conditions: remark: other sources report otherwise.
B12: the IC50 came out at 40 nM.

In turn, B14 registered an IC50 of 516 nM.

The molecule B17 had an IC50 of 2510 nM.

The target in another assay is HLA-A03.01 (human). The description is as above. Conditions: remark: other sources report otherwise.
As to B17, the IC50 was 117 nM.

For a further assay, the target named is HLA-A24.02 (human). The assay is described as above. The conditions noted are these: remark: other sources report otherwise.
In the case of B14, the IC50 came out at 6980 nM.

Another assay has as its target HLA class I molecule A02.01. In words: competition with radiolabeled reference peptide on purified MHC I. Conditions: remark: other sources report otherwise.
Molecule B1 gave a half-maximal inhibitory concentration (IC50) of 48 nM.

Turning to B2, the concentration for half-maximal inhibition (IC50) amounted to 225 nM.

In turn, B3 displayed an IC50 of 102 nM.

Molecule B4 returned an IC50 of 62 nM.

Molecule B5 registered an IC50 of 11500 nM.

The molecule B6 returned an IC50 of 10 nM.

The molecule B7 registered an IC50 of 57 nM.

B9: the IC50 amounted to 117 nM.

As for B10, the IC50 was 164 nM.

For the next assay, the target named is HLA class I molecule A03.01. The description is as above. Conditions: remark: other sources report otherwise.
In turn, B3 gave an IC50 of 11200 nM.

For B6, the IC50 came out at 10500 nM.

As to B11, the IC50 came out at 21100 nM.

The next assay deals with HLA class I molecule A24.02. The assay is described as above. Conditions: remark: other sources report otherwise.
B1 came in with an IC50 of 633 nM.

Molecule B4 displayed an IC50 of 8520 nM.

As for B10, the IC50 is 12400 nM.

A further assay addresses HLA class I molecule B07.02. The assay is described as above. The conditions noted are these: remark: other sources report otherwise.
Molecule B5 yielded an IC50 of 170 nM.

Regarding B7, the IC50 came to 52600 nM.

B8 registered an IC50 of 2590 nM.

Another assay has as its target HLA class I molecule B08.01. The assay is described as above. Conditions: remark: other sources report otherwise.
The molecule B2 came in with an IC50 of 3180 nM.

In turn, B8 had an IC50 of 6 nM.

B9: the IC50 is 872 nM.

For a further assay, the target named is HLA-A02:01 class I MHC molecule (human). In words: pMHC-I dissociation at 37 C, 125I-labeled b2m, scintillation counts. Conditions: remark: other sources report otherwise.
Take B18: the Stability (half-life (hr.)) amounted to 0 h.

B19 displayed a Stability (half-life (hr.)) of 0 h.

The target of another assay is HLA-B07:02 class I MHC molecule (human). The assay is described as above. Conditions: remark: other sources report otherwise.
Consider B19, for which the Stability (half-life (hr.)) amounted to 0 h.

The next assay deals with HLA-A01.01 (human). As to the kind of experiment: competition vs radiolabeled reference peptide on purified MHC I, gel filtration. The conditions noted are these: remark: other sources report otherwise. (In general: Size exclusion chromatography separates by hydrodynamic size, large species first.)
B20 returned an IC50 of 2890 nM.

The next assay concerns the target HLA-A02.01 (human). Described as above. Conditions: remark: other sources report otherwise.
The molecule B16 yielded an IC50 of 716 nM.

Another assay concerns the target T1, HLA-A01.01 class I MHC molecule (prepared complex) (human). As to the kind of experiment: dissociation of peptide-MHC-I complex at 37 C, 125I-labelled b2m, scintillation. The conditions noted are these: remark: other sources report otherwise.
As to B21, the Stability (half-life (hr.)) is 6.22 min.

The molecule B22 returned a Stability (half-life (hr.)) of 0 min.

The target of the next assay is T2, HLA-A02.01 class I MHC molecule (prepared complex) (human). The description is as above. The conditions noted are these: remark: other sources report otherwise.
B23 had a Stability (half-life (hr.)) of 0 min.

The molecule B24 displayed a Stability (half-life (hr.)) of 30.9 min.

In the case of B25, the Stability (half-life (hr.)) was 22.9 min.

Turning to B22, the Stability (half-life (hr.)) was found to be 0 min.

With B26, the Stability (half-life (hr.)) turned out to be 20.4 min.

The target in another assay is T3, HLA-A24.02 class I MHC molecule (prepared complex) (human). The description is as above. The conditions noted are these: remark: other sources report otherwise.
Take B23: the Stability (half-life (hr.)) worked out at 0 min.

Take B24: the Stability (half-life (hr.)) turned out to be 0 min.

For B25, the Stability (half-life (hr.)) was found to be 0 min.

B26 displayed a Stability (half-life (hr.)) of 22.1 min.

Another assay has as its target T1, HLA-A01.01 class I MHC molecule …. In words: displacement of radiolabeled reference peptide from class I MHC, gel filtration; 'Affinity (nM)'. Conditions: remark: other sources report otherwise.
The molecule B21 registered an IC50 of 2890 nM.

The molecule B22 registered an IC50 of 8280 nM.

The target in a further assay is T2, HLA-A02.01 class I MHC molecule …. The description is as above. The conditions noted are these: remark: other sources report otherwise.
In the case of B23, the IC50 amounted to 4940 nM.

In turn, B24 came in with a half-maximal inhibitory concentration (IC50) of 653 nM.

The molecule B25 had an IC50 of 16.3 nM.

As for B22, the IC50 was 537 nM.

With B26, the IC50 worked out at 193 nM.

The target of a further assay is T3, HLA-A24.02 class I MHC molecule …. The description is as above. The conditions noted are these: remark: other sources report otherwise.
Molecule B23 came in with an IC50 of 4100 nM.

As to B24, the IC50 was determined as 14100 nM.

In turn, B25 displayed an IC50 of 18900 nM.

A further assay has as its target HLA-A02:01 class I MHC molecule (human). In words: competition with a radiolabeled reference peptide for purified MHC I, gel filtration; 'Affinity (nM)'. The conditions noted are these: remark: other sources report otherwise.
Molecule B18 came in with an IC50 of 4000 nM.

For the molecule B19, the IC50 came out at 1010 nM.

For the origin of these results see patent publication US20220282217A1, “COMPOSITIONS AND METHODS FOR PREPARING T CELL COMPOSITIONS AND USES THEREOF” (priority 2019, published 2022).
